These results are taken from a protein production outcome set (Wang et al. 2014).

The nature of the data set: label from the status in PepcDB records.
“MSGFSPELIDYLEGKISFEEFERRREERKTREKKSLQEKGKLSAEENPDDSEVPSSSGINSTKSQDKDVNEGETSDGVRKSVHKVFASMLGENEDDEEEEEEEEEEEEEEETPEQPTAGDVFVLEMVLNRETKKMMKEKRPRSKLPRALRGLMGEANIRFARGEREEAILMCMEIIRQAPLAYEPFSTLAMIYEDQGDMEKSLQFELIAAHLNPSDTEEWVRLAEMSLEQDNIKQAIFCYTKALKYEPTNVRYLWERSSLYEQMGDHKMAMDGYRRILNLLSPSDGERFMQLARDMAKSYYEANDVTSAINIIDEAFSKHQGLVSMEDVNIAAELYISNKQYDKALEIITDFSGIVLEKKTSEEGTSEENKAPENVTCTIPDGVPIDITVKLMVCLVHLNILEPLNPLLTTLVEQNPEDMGDLYLDVAEAFLDVGEYNSALPLLSALVCSERYNLAVVWLRHAECLKALGYMERAAESYGKVVDLAPLHLDARISLSTLQQQLGQPEKALEALEPMYDPDTLAQDANAAQQELKLLLHRSTLLFSQGKMYGYVDTLLTMLAMLLKVAMNRAQVCLISSSKSGERHLYLIKVSRDKISDSNDQESANCDAKAIFAVLTSVLTKDDWWNLLLKAIYSLCDLSRFQEAELLVDSSLEYYSFYDDRQKRKELEYFGLSAAILDKNFRKAYNYIRIMVMENVNKPQLWNIFNQVTMHSQDVRHHRFCLRLMLKNPENHALCVLNGHNAFVSGSFKHALGQYVQAFRTHPDEPLYSFCIGLTFIHMASQKYVLRRHALIVQGFSFLNRYLSLRGPCQESFYNLGRGLHQLGLIHLAIHYYQKALELPPLVVEGIELDQLDLRRDIAYNLSLIYQSSGNTGMAQTLLYTYCSI”: the protein production entry is “failed”.

On to “MSGGQQERHVLILNTVGGRRAIALEAAAYSLGRDESNAIVIDFETVSRQHAILLRVPVPGTTSYRYRLVDGNANGKPSTNGTFVNGKRISSHELQHGDVILFGRKAKASYLLLSMADTEFSQYLQSIAFQSIKSDLRGAKETLVGMELSGELRRTPNRELVAAGATQLHPELEPAKDTLSSESDSEPKGNNKETLHEKESQGSKTNLVALGAIALVVVAIIAGAVWRAGFSANPPQGSPPATPTRN”, for which the protein production result was “failed”.

Take “MSGGRAQKPRPAPLRLAKPRPSSVGPAPRGSPGARRPAMSARHAPLLAGRVRSRAPRRFPDRGGGRRRQSSPVRAMSSPAVARASPGGNREASGGPRSRNGPWEVGGGGERLERAGAESGRWELLLRRGELLALGGHLKGALEAFAAALRRGAPARPERLGSLVDCLVFSYRLRHGLRWSAAPAAGAAGLLSCLSCRGFLSEPVTVPCGHSYCRRCLRRELRARCRLCRDRLPPAAAASEGTPRPPPLAAAIADFRTSVVLNHLAEKWFPGQRERARAAGRLGELLHEGRYREALAAACDALRAEPSDLTLKIYRAESYAGLQEFKAALEDLNAVLFQLPNWPEVYFRKGKVLQDAGFLGDALQLFLQCLALDEDFAPAKLQVEKILCDLLSPENVREGLKESSWSSLPCIKSKPLGFPSVMEQPHSPAELGLKQPEERVEDAPEPVKGSLSRAQSAQAISAAAVPAREDGLKRVCSEPLLSAQGKGVLLKRKLSLLEQDVLINEDGRSKLKKQSESPSEDCMFSIAYGDIPEELIDVSDFECSLCMRLFFEPVTTPCGHSFCKNCLERCLDHAPYCPLCKESLKEYLADRRYCVTQLLEELIVKYLPDELSERKKIYDEETAELSHLTKNVPIFVCTMAYPTVPCPLHVFEPRYRLMIRRSIQTGTKQFGMCVSDTQNSFADYGCMLQIRNVHFLPDGRSVVDTVGGKRFRVLKRGMKDGYCTADIEYLEDVKIENGDEIRSLRELHDSVYSQACSWFQNLRDRFRSQILQHFGSMPEREENLQATPNGPAWCWWLLAVLPVDPRYQLSVLSMKSLEERLTKIQHILTYFSRDQSK”: the protein production result is recorded as “failed”.

For the sequence “MSGIEAKNLWHRLNNLALVRFLLLVAAGWAIVQLLAYFETVIIIFTFAAILAFLLSYPVQWLRRFLPHSVAVVVVFLISIVILGGLLITVGVALLSQGQQLIDSISAFLTSLLPFLERIERLLSNRNLQIDLSVIQEQLRTQAVSTLVTSLAIVQQFLTNFVTFILIAVVAFFMLLDGEKLWNFILKIVPQKRRIRFTNIMRRSFLGFFRGQLLLCLFLTSSTFIIFLLLQVPFALILSVIVGILDIIPGIGATLGVGTITLIVLSQDVWLALKVLAACVVLQQIQDNLISPRIMQGSLNLNPVVVFFALLVGARVAGLLGVFISIPITGVIVSLFEIDEMKSEV”, the protein production entry is reported as “failed”.

On to “MSGILALGAYVPERVMTNADFEAYLDTSDEWIVTRTGIKERRVAAEDEYTSDLAFKAVEDLLRRHPGALEGVDAVIVATNTPDALFPDTAALVQARFGLKAFAYDLLAGCPGWIYALAQAHALVEAGLAQKVLAVGAEALSKIIDWNDRATAVLFGDGGGAAVVGKVREGYGFRSFVLGADGTGAKELYHACVAPRLPDGTSMKNRLYMNGREVFKFAVRVMNTATLEAIEKAGLTPEDIRLFVPHQANLRIIDAARERLGLPWERVAVNVDRYGNTSTASIPLALKEALDAGRIREGDHVLLVSFGAGLTWAAAVLTWGGA”, for which the protein production result is “not failed”.

With “MSGLDPARSILQGSAEGPVIATGEALSFWGGVDPATGCVIDVHHPLHGVPLTGSILMMPSSRGSCTGSGVLLDLVLTGRGPAALVFSEPEDVLTLGALIASEMFGKPLPVL”, the protein production result is recorded as “failed”.

For “MSGMRVYLGADHAGYELKQRIIEHLKQTGHEPIDCGALRYDADDDYPAFCIAAATRTVADPGSLGIVLGGSGNGEQIAANKVPGARCALAWSVQTAALAREHNNAQLIGIGGRMHTVAEALAIVDAFVTTPWSKAQRHQRRIDILAEYERTHEAPPVPGAPA”, the protein production entry is listed as “not failed”.

Turning to “MSGMVDLKEFLAELGKTQKELKNVIEQAKDIGLELKTNSKMTPEQAGKLYKYIVDGIKEQIQANQPAKNPEQDNKDDLNTAVASKSLNKKVSKTPKKEETKSQPKPKKTKEKKKEAPTPIAKKKGGIEIVNTFENQTPPTENTPKVVSHSQIEKAKQKLQEIQKSREALNKLTQSNANNASNANNAKKEISEVKKQEQEIKRHENIKRRTGFRVIKRNDEVENESENSVTESKKPTQSAAAIFEDIKKEWQEKDKQEAKKAKKPSKPKATPTAKNNKSHKIDFSDARDFKGNDIYDDETDEILLFDLHEQDNFNKEEEEKEIRQNINDRVRVQRKNPWMNESGIKRQSKKKRAFRNDNSQKVIQSTTAIPEEVRVYEFAQKANLNLADVIKTLFNLGLMVTKNDFLDKDSIEILAEEFHLEISVQNTLEEFEVEEVLEGVKKERPPVVTIMGHVDHGKTSLLDKIRDKRVAHTEAGGITQHIGAYMVEKNDKWVSFIDTPGHEAFSQMRNRGAQVTDIAVIVIAADDGVKQQTIEALEHAKAANVPVIFAMNKMDKPNVNPDKLKAECAELGYNPVDWGGEHEFIPVSAKTGDGIDNLLETILIQAGIMELKAIEEGSARAVVLEGSVEKGRGAVATVIVQSGTLSVGDSFFAETAFGKVRTMTDDQGKSIQNLKPSMVALITGLSEVPPAGSVLIGVENDSIARLQAQKRATYLRQKALSKSTKVSFDELSEMVANKELKNIPVVIKADTQGSLEAIKNSLLELNNEEVAIQVIHSGVGGITENDLSLVSSSEHAVILGFNIRPTGNVKNKAKEYNVSIKTYTVIYALIEEMRSLLLGLMSPIIEEEHTGQAEVRETFNIPKVGTIAGCVVSDGVIARGIKARLIRDGVVIHTGEILSLKRFKDDVKEVSKGYECGIMLDNYNEIKVGDVFETYKEIHKKRTL”, the protein production entry is “failed”.

As to “MSGPTWLPPKQPEPSRVPQGRALPRGTLGPPTAHGATLQPHPRVNFCPLPPEQCYQPPGVPEDRGPTWVGSHGAAQRLQGLPPDRGVIHPGSLDAEIDSLTSMLADLDGSRSHAPRRPDRQAFEAPPPHAYRGGSLKPSGGAVPAPMLPASPYGGPTPASYATASTPAGPAFPVQVKVAQPVRGCGLPRRGASQASGPLPGPHFPLTGRGEVWGAGYRSHREPGPGVKEGAAGVHNPAGGGRRGGHEPQGPLSQPPEEELERLTKKLVHDMNHPPSGEYFGRCGGCGDDVVGDGAGVVALDRVFHTGCFVCSTCRAQLRGQHFYAVERRAYCESCYVATLEKCSTCSEPILDRILRAMGKAYHPGCFTCVVCHRGLDGIPFTVDATSQIHCIEDFHRKFAPRCSVCGGAIMPEPGQEETVRIVALDRSFHIGCYKCEECGLLLSSEGECQGCYPLDGHILCKACSAWRIQELSATVTTDC”, the protein production result was “failed”.
